{
  "source": "patent EP2348038A1",
  "about": "“Method for determining the activity of transglutaminase factor XIIIa” (PHILIPPS-UNIVERSITÄT MARBURG, priority 2010, dated 2011)",
  "type_in_all_cases": "biochemical",
  "key": {"[1]": {"substrate": "CC[C@H](C)[C@H](NC(=O)[C@@H](NC(=O)[C@H](CCCCN)NC(=O)[C@@H](NC(=O)[C@H](CCC(=O)Nc1ccc([N+](=O)[O-])cc1)NC(=O)[C@@H](N)Cc1ccc(O)cc1)C(C)C)C(C)C)C(=O)NCC(N)=O", "assay": "Cleavage of pNA substrates by activated factor XIIIa, absorbance at 405 nm (Michaelis-Menten kinetics and pre-test)", "conditions": "other: pNA substrates, 37 °C, enzyme ca. 1,25 Einheiten/ml, varied substrate concentration, pH 7.5", "experimental": "(§1) 250 Einheiten lyophilisiertes Fibrogammin HS (Aventis Behring) wurden in 4 ml Wasser gelöst, als 100 µl Portionen aliquotiert und bei -80 °C gelagert. 100 µl dieser Lösung enthalten 6,25 Einheiten FXIII.\n(§2) 100 µl des aliqotierten Fibrogammins (entspricht 6,25 Einheiten) wurden mit 500 µl TBS-Puffer (50 mM Tris-HCl, pH 7,5 in 0,9% (w/v) NaCl), 360 µl einer 0.9 % NaCl-Lösung, 10 µl einer 1 M CaCl2-Lösung und 20 µl einer Thrombinlösung (Rinderthrombin: 14,2 U in 20 µl) versetzt. Der Ansatz wurde 20 min bei 37 °C inkubiert, danach wurden 10 µl einer Lösung mit rekombinantem Hirudin zugesetzt (r-Hirudin: HBW 023 mit 13442 IU mg^-1, Stammlösung des r-Hirudin = 1 mg/ml). Dieser Aktivierungsansatz besitzt ein Gesamtvolumen von 1 ml, der aktivierte Faktor Xllla wurde bei 37 °C aufbewahrt und für die folgenden kinetischen Messungen verwendet.\n(§3) Die Messungen wurden bei 405 nm und 37 °C mit einem Microplate Reader der Firma Labsystems (iEMS Reader MF) mit folgendem Messansatz durchgeführt: • 150 µl TBS-Puffer (siehe oben, der Puffer kann gegebenenfalls auch eine Aminkomponente enthalten, beispielsweise H-Gly-Ethylester oder H-Gly-Gly-Ethylester oder ein anderes Amin, falls vorhanden ist die finale Konzentration des Amins im Messansatz 2,5 mM oder höher) • 50 µl Substratlösung • 50 µl Enzymlösung (im Messansatz ca. 1,25 Einheiten/ml)\n(§4) Sämtliche Lösungen wurden vor Benutzung bei 37 °C aufbewahrt, vor Zugabe der FXllla-Lösung wurde die Mikroreadermessplatte nochmals 5 min bei 37 °C im Messgerät temperiert. Nach Zugabe der FXllla-Lösung wurde die Substratspaltung gestartet und die Änderung der Absorption bei 405 nm gemessen. Für einen Vortest wurde eine konstante Substratkonzentration verwendet. […] Wir haben vermutet, dass vor allem die Aminosäuren N- und C-terminal des Glu(pNA)-Restes wichtig für die Substraterkennung sind, deshalb wurde das N-terminale Glycin und das an dritter Position befindliche Serin innerhalb der Berichromsequenz durch andere Aminosäurereste ersetzt. Durch den Vortest wurde festgestellt, dass einige dieser Substrate deutlich schneller als die Derivate S1 und S2 gespalten werden. Für ausgewählte Substrate wurden die Substratkonzentrationen im Messansatz variiert und die bestimmten Umsatzgeschwindigkeiten als Funktion der Substratkonzentration entsprechend der Michaelis-Menten-Gleichung v=Vmax·[S]/(Km+[S]) aufgetragen und somit die kinetischen Konstanten Km und Vmax bestimmt, wobei Vmax in der Einheit Absorptionsänderung bei 405 nm/s erhalten wurde. Dies ist in Fig. 1 und Fig. 2 gezeigt."}, "[2]": {"substrate": "CC[C@H](C)[C@H](NC(=O)[C@@H](NC(=O)[C@H](CCCCN)NC(=O)[C@@H](NC(=O)[C@H](CCC(=O)Nc1ccc([N+](=O)[O-])cc1)NC(=O)[C@@H](N)Cc1ccc(O)cc1)C(C)C)C(C)C)C(N)=O", "assay": "Cleavage of pNA substrates by activated factor XIIIa, absorbance at 405 nm (Michaelis-Menten kinetics and pre-test)", "conditions": "other: pNA substrates, 37 °C, enzyme ca. 1,25 Einheiten/ml, varied substrate concentration, pH 7.5", "experimental": "as §1, §2, §3, §4"}, "[3]": {"substrate": "CC[C@H](C)[C@H](NC(=O)[C@@H](NC(=O)[C@H](CCCNC(=N)N)NC(=O)[C@@H](NC(=O)[C@H](CCC(=O)Nc1ccc([N+](=O)[O-])cc1)NC(=O)[C@@H](N)Cc1ccc(O)cc1)C(C)C)C(C)C)C(=O)NCC(N)=O", "assay": "Cleavage of pNA substrates by activated factor XIIIa, absorbance at 405 nm (Michaelis-Menten kinetics and pre-test)", "conditions": "other: pNA substrates, 37 °C, enzyme ca. 1,25 Einheiten/ml, varied substrate concentration, pH 7.5", "experimental": "as §1, §2, §3, §4"}, "[4]": {"substrate": "CC[C@H](C)[C@H](NC(=O)[C@H](CCC(=O)Nc1ccc([N+](=O)[O-])cc1)NC(=O)[C@@H](N)Cc1ccc(O)cc1)C(=O)N[C@@H](CCCCN)C(=O)N[C@H](C(=O)N[C@H](C(=O)NCC(N)=O)[C@@H](C)CC)C(C)C", "assay": "Cleavage of pNA substrates by activated factor XIIIa, absorbance at 405 nm (Michaelis-Menten kinetics and pre-test)", "conditions": "other: pNA substrates, 37 °C, enzyme ca. 1,25 Einheiten/ml, varied substrate concentration, pH 7.5", "experimental": "as §1, §2, §3, §4"}, "[5]": {"substrate": "CC[C@H](C)[C@H](NC(=O)[C@@H](NC(=O)[C@H](CCCCN)NC(=O)[C@@H](NC(=O)[C@H](CCC(=O)Nc1ccc([N+](=O)[O-])cc1)NC(=O)[C@@H](N)CCCCN)C(C)C)C(C)C)C(=O)NCC(N)=O", "assay": "Cleavage of AMC substrates by activated factor XIIIa, fluorescence plate reader (Michaelis-Menten kinetics)", "conditions": "other: AMC substrates; λEX = 380 nm, λEm = 460 nm, room temperature; enzyme ca. 0,893 Einheiten/ml", "experimental": "(§5) Die Aliquotierung des Zymogens Faktor XIII und Aktivierung des Zymogens FXIII zu Faktor XIIIa erfolgten analog der in Beispiel 3 beschriebenen Prozedur.\n(§6) Sämtliche Lösungen wurden bei Raumtemperatur aufbewahrt. Die Bestimmung der Spaltung der AMC-Substrate durch FXllla wurde mit einem Fluoreszenz-Plattenreader Safire^2 der Firma Tecan (λEX = 380 nm, λEm = 460 nm) bei Raumtemperatur durchgeführt. • 100 µl TBS-Puffer (siehe oben, der Puffer kann gegebenenfalls auch eine Aminkomponente enthalten, beispielsweise H-Gly-Ethylester oder H-Gly-Gly-Ethylester oder ein anderes Amin) • 50 µl Substratlösung • 25 µl Enzymlösung (im Messansatz ca. 0,893 Einheiten/ml)\n(§7) Die Michaelis-Menten-Auftragung für die AMC-enthaltenden Substrate ist in Fig. 3 gezeigt."}, "[6]": {"substrate": "CC[C@H](C)[C@H](NC(=O)[C@@H](NC(=O)[C@H](CCCCN)NC(=O)[C@H](CCCCNC(=O)OCc1ccccc1)NC(=O)[C@H](CCC(=O)Nc1ccc([N+](=O)[O-])cc1)NC(=O)[C@@H](N)Cc1c[nH]cn1)C(C)C)C(=O)NCC(N)=O", "assay": "Cleavage of AMC substrates by activated factor XIIIa, fluorescence plate reader (Michaelis-Menten kinetics)", "conditions": "other: AMC substrates; λEX = 380 nm, λEm = 460 nm, room temperature; enzyme ca. 0,893 Einheiten/ml", "experimental": "as §5, §6, §7"}},
  "data": [
    {"protein": "Faktor XIIIa (Homo sapiens) (protein, Aktivierung des Zymogens FXIII zu Faktor XIIIa; purchased Aventis Behring Fibrogammin HS) GVNLQEFLNVTSVHLFKERWDTNKVDHHTDKYENNKLIVRRGQSFYVQIDFSRPYDPRRDLFRVEYVIGRYPQENKGTYIPVPIVSELQSGKWGAKIVMREDRSVRLSIQSSPKCIVGKFRMYVAVWTPYGVLRTSRNPETDTYILFNPWCEDDAVYLDNEKEREEYVLNDIGVIFYGEVNDIKTRSWSYGQFEDGILDTCLYVMDRAQMDLSGRGNPIKVSRVGSAMVNAKDDEGVLVGSWDNIYAYGVPPSAWTGSVDILLEYRSSENPVRYGQCWVFAGVFNTFLRCLGIPARIVTNYFSAHDNDANLQMDIFLEEDGNVNSKLTKDSVWNYHCWNEAWMTRPDLPVGFGGWQAVDSTPQENSDGMYRCGPASVQAIKHGHVCFQFDAPFVFAEVNSDLIYITAKKDGTHVVENVDATHIGKLIVTKQIGGDGMMDITDTYKFQEGQEEERLALETALMYGAKKPLNTEGVMKSRSNVDMDFEVENAVLGKDFKLSITFRNNSHNRYTITAYLSANITFYTGVPKAEFKKETFDVTLEPLSFKKEAVLIQAGEYMGQLLEQASLHFFVTARINETRDVLAKQKSTVLTIPEIIIKVRGTQVVGSDMTVTVEFTNPLKETLRNVWVHLDGPGVTRPMKKMFREIRPNSTVQWEEVCRPWVSGHRKLIASMSSDSLRHVYGELDVQIQRRPSM", "values": [
      {"measurement": "Km", "setting": "[1]", "result": 40, "unit": "µM"},
      {"measurement": "Km", "setting": "[2]", "result": 86, "unit": "µM"},
      {"measurement": "Km", "setting": "[3]", "result": 49, "unit": "µM"},
      {"measurement": "Km", "setting": "[4]", "result": 78, "unit": "µM"},
      {"measurement": "Km", "setting": "[5]", "result": 30, "unit": "µM"},
      {"measurement": "Km", "setting": "[6]", "result": 41, "unit": "µM"}
    ]}
  ]
}
